Ends that are not written are not given here.

We go through one molecule from patent publication EP1680442B1 (Bioincept, LLC., dated 2011).

The experiment deals with T1, AbPIF-1(15).
T1 construct: also called AbPIP-1(15); PIF-1 antibody
Nature of the experiment: competition ELISA, pAb coated at 4.5 ug/ml, unlabelled against biotinylated peptide. Background: In an ELISA, binding on a coated surface is turned into a signal by an enzyme label.

B1: sPIF-1(15) (peptide)
peptide: MVRIKPGSANKPSDD
modifications: not fully specified; also: flow cytometry form: FITC on N-terminus via β-alanine spacer
notes: Synthetic 15-residue peptide; In flow cytometry it carried FITC on the N-terminus through a b-alanine spacer; also called synthetic PIF-1; FITC sPIF-1(15)
Usually IC50 stands for the midpoint of a concentration-inhibition curve. In the case of B1, the IC50 was in the range of 0.5 to 0.7 nM.
